For this test, the target named is insulin receptor (IR-B) (UniProt P06213). Description: cell-based or functional assay.

In turn, “CIU-033 (from UniProt P09681 52-93) (ligand; B1 amine-CH2CH2CH2-S-S-Cys of incretin; X=Aib)” showed a Normalized IR-B EC50 of 988 pM.

The values above are taken from patent publication US20170281788A1.
